Laboratory results from patent US20160369010A1 (AstraZeneca / MedImmune, published 2016).
Changes are numbered by the printed parent chain. Each block holds one binder with its values, some of them ahead of it.

Experiments:
[1] = target: T1, Recombinant human Avi_PCSK9_Flag_His (human, UniProt Q8NBP7 31-692, biotinylated in the HTRF and LDL-R competition assays); assay: HTRF epitope competition: unlabelled compound titrated against a DyLight 650-labelled anti-PCSK9 antibody for biotinylated human PCSK9; % specific binding
T1 construct: In-house protein; also called human PCSK9; huPCSK9

[2] = target: T1, Recombinant human Avi_PCSK9_Flag_His; assay: binding ELISA on coated human PCSK9 (10 ug/mL), compound at 100 ug/mL, detection with cryptate labelled Fc specific anti human IgG
[3] = target: T1, Recombinant human Avi_PCSK9_Flag_His; assay: HTRF epitope competition: unlabelled compound titrated against a DyLight 650-labelled anti-PCSK9 antibody for biotinylated human PCSK9; % specific binding [panel E]
[4] = target: T1, Recombinant human Avi_PCSK9_Flag_His; assay: HTRF epitope competition: unlabelled compound titrated against a DyLight 650-labelled anti-PCSK9 antibody for biotinylated human PCSK9; % specific binding [panel F]
[5] = target: T1, Recombinant human Avi_PCSK9_Flag_His; assay: HTRF epitope competition: unlabelled compound titrated against a DyLight 650-labelled anti-PCSK9 antibody for biotinylated human PCSK9; % specific binding [panel A]
[6] = target: T1, Recombinant human Avi_PCSK9_Flag_His; assay: binding ELISA: human PCSK9 coated at 10 ug/mL, compound at 100 ug/mL, detection with cryptate-labelled Fc-specific anti-human IgG; fluorescence counts

IC50 (read off the curve) [1]: ~0.1 nM
B1: PC9#7 GLP-1 analogue heavy chain fusion (antibody, IgG1)
VH: HGEGTFTSDVSSYLEEQAAKEFIAWLVKGGGGGGGSGGGGSGGGGSAQVQLVQSGAEVKKPGESLKISCKGSGYSFTNYWISWVRQMPGKGLEWMGIIYPGDSYTNYSPSFQGQVTISADKSISTAYLQWSSLKASDTAMYYCARDYWYKPLFDIWGQGTLVTVSS
VL: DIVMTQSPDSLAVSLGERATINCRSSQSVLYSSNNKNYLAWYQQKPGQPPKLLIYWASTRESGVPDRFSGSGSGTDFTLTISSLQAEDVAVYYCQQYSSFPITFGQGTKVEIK
notes: IgG1-TM; descriptive name; also called heavy chain peptide antibody fusion of PC9#7

binding result [2]: binds
B2: PC9#5_DSB7_V19A (antibody, IgG1, V domains shown)
VH: EMQLVESGGGLVQPGGSLRLSCAASGFTFSSHWMKWVRQAPGKGLEWVANINQDGSEKYYVDSVKGRFTISRDNAKNSLFLQMNSLRAEDTAVYYCARDIVLMVYDMDYYYYGMDVWGQGTTVTVSS
VL: not shown
notes: IgG1-TM

binding result [2]: binds
B3: PC9#3_DSB7_V19A (antibody, IgG1)
VH: EVQLVESGGGLVQPGGSLRLSCAASGFTFNNYAMNWVRQAPGKGLDWVSTISGSGGTTNYADSVKGRFIISRDSSKHTLYLQMNSLRAEDTAVYYCAKDSNWGNFDLWGRGTLVTVSS
VL: HGEGTFTSDLSKQMEEECARLFIEWLKNGGPSSGAPPPGCGGGGGSGGGGSGGGGSADIVMTQSPDSLAVSLGERATINCKSSQSVLYRSNNRNFLGWYQQKPGQPPNLLIYWASTRESGVPDRFSGSGSGTDFTLTISSLQAEDVAVYYCQQYYTTPYTFGQGTKLEIK
notes: IgG1-TM

IC50 (read off the curve) [3]: ~0.1 nM
B4: PC9#5 GLP-1 analogue heavy chain fusion (antibody, IgG1)
VH: HGEGTFTSDVSSYLEEQAAKEFIAWLVKGGGGGGGSGGGGSGGGGSAEMQLVESGGGLVQPGGSLRLSCAASGFTFSSHWMKWVRQAPGKGLEWVANINQDGSEKYYVDSVKGRFTISRDNAKNSLFLQMNSLRAEDTAVYYCARDIVLMVYDMDYYYYGMDVWGQGTTVTVSS
VL: not shown
notes: IgG1-TM; descriptive name; also called heavy chain peptide antibody fusion of PC9#5

IC50 (read off the curve) [4]: ~0.6 nM
B5: PC9#6 GLP-1 analogue heavy chain fusion (antibody, IgG1)
VH: HGEGTFTSDVSSYLEEQAAKEFIAWLVKGGGGGGGSGGGGSGGGGSAQVQLVQSGAEVKKPGSSVKVSCKASGGTFNSHAISWVRQAPGQGLEWMGGINPILGIANYAQKFQGRVTITADESTSTAYMELSSLRSEDTAVYYCARHYEIQIGRYGMNVYYLMYRFASWGQGTLVTVSS
VL: DIQMTQSPSSLSASVGDRVTITCRASQGIRSALNWYQQKPGKAPKLLIYNGSTLQSGVPSRFSGSGSGTDFTLTISSLQPEDFAVYYCQQFDGDPTFGQGTKVEIK
notes: IgG1-TM; descriptive name; also called heavy chain peptide antibody fusion of PC9#6

IC50 (read off the curve) [5]: ~0.1 nM
B6: PC9#1 GLP-1 analogue light chain fusion (antibody, IgG1)
VH: QVQLVQSGAEVKKPGASVKVSCKASGYTFTSYYMHWVRQAPGQGLEWMGEISPFGGRTNYNEKFKSRVTMTRDTSTSTVYMELSSLRSEDTAVYYCARERPLYASDLWGQGTTVTVSS
VL: HGEGTFTSDVSSYLEEQAAKEFIAWLVKGGGGGGGSGGGGSGGGGSADIQMTQSPSSLSASVGDRVTITCRASQGISSALAWYQQKPGKAPKLLIYSASYRYTGVPSRFSGSGSGTDFTFTISSLQPEDIATYYCQQRYSLWRTFGQGTKLEIK
notes: IgG1-TM; peptide-linker at the N-terminus of VL; descriptive name; also called light chain peptide antibody fusion of PC9#1

binding result [6]: binds
B7: HS9_DSB7_V19A_L1 (antibody, IgG1)
VH: B6 VH with F54S, R57S, N59S, E62Q, K65Q, S66G
light: not shown
notes: VH see m27; IgG1-TM

binding result [6]: binds
B8: HS9_DSB7_V19A_L2 (antibody, IgG1)
VH: B6 VH with F54S, R57S, N59S, E62Q, K65Q, S66G
light: not shown

binding result [6]: binds
B9: HS9_DSB7_V19A_L0 (antibody, IgG1)
VH: B6 VH with F54S, R57S, N59S, E62Q, K65Q, S66G
light: not shown
notes: VH see m27; IgG1-TM
